Each block holds one molecule with its values, some of them ahead of it.
Assays:
[1] = target: NAT domain of mouse NAGS (mouse); assay: SEC; analytic gel filtration, Superdex 200 HR 10/30; 100 mM NaH2PO4 pH 7.4, 150 mM NaCl, 10% glycerol, 1 mM β-mercaptoethanol; weights from a standard curve
[2] = target: the molecule itself; assay: as above
[3] = target: the molecule itself; assay: cross-linking; dimethyl suberimidate (4.5 µg) or suberic acid bis(3-sulfo-N-hydroxysuccinimide ester) sodium salt (9.0 µg), 10 µl of 200 mM triethanolamine pH 8.25, three hours at 298 K; SDS-PAGE, Coomassie (mNAGS) or silver (hNAGS) stain

stoichiometry N [1]: 2
Molecule: NAT domain of mouse NAGS (domain or fragment)

B1: human NAGS N-acetyltransferase domain (residues 377-534), as used in gel filtration (domain or fragment, UniProt Q8N159 377-534, looked up)
chain: MLRVRSLDKLDQGRLVDLVNASFGKKLRDDYLASLRPRLHSIYVSEGYNAAAILTMEPVLGGTPYLDKFVVSSSRQGQGSGQMLWECLRRDLQTLFWRSRVTNPINPWYFKHSDGSFSNKQWIFFWFGLADIRDSYELVNHAKGLPDSFHKPASDPGS
notes: N-acetyltransferase (NAT) domain of human N-acetylglutamate synthase, residues 377-534; also called hNAT; hNAT domain
stoichiometry N [2]: 2

B2: complete mouse N-acetylglutamate synthase (enzyme, UniProt Q8R4H7 19-527, looked up)
chain: LRSPGGPGGSRRLSGSARRRGAKSASPGRRLSTARAHAEDAEGAKGRVQSPAVEEPSWTPLPTPLESPAPPAGRSLVQRDIQAFLNQCGASPGEARHWLTQFQTCYHSVDKPFAVMEVDEEVIRCPQAVSRLAFALAFLQRMDMKPLVVLGLPTPTAPSGCLSFWEAKAQLAQSCKVLVDELRHNAATAVPFFGGGSVLSAAEPAPHASYGGIVAVETDLLQWCLESNSIPILCPIGETAARRSVLLDSLEVTASLAKALQPTKIIFLNNSGGLRNNSQKILSNVNLPADLDLVTNAEWLSIKERQQIRLIVDVLSRLPHYSSAVITAASTLLTELFSNKGCGTLFKNAERMLRVRNLDSLDQGRLVNLVNASFGKKLREDYLESLRPRLHSIYVSEGYNAAAILTVEPVLGGTPYLDKFVVSSSRQGQGSGQMLWECLRRDLQTLFWRSRVTNPINPWYFKHSDGSFSNKQWIFFWFGLADIRDSYELVNHAKGLPDSFCKPASDPGS
notes: N-acetylglutamate synthase (NAGS, EC 2.3.1.1), mouse; the printed tetramer weight of 195.8 kDa gives 48.95 kDa a subunit; also called mNAGS; mouse NAGS
stoichiometry N [3]: 4

B3: complete human N-acetylglutamate synthase (enzyme, UniProt Q8N159 19-534, looked up)
chain: LRGRGGTGGARRLSCGARRRAARGTSPGRRLSTAWSQPQPPPEEYAGADDVSQSPVAEEPSWVPSPRPPVPHESPEPPSGRSLVQRDIQAFLNQCGASPGEARHWLTQFQTCHHSADKPFAVIEVDEEVLKCQQGVSSLAFALAFLQRMDMKPLVVLGLPAPTAPSGCLSFWEAKAQLAKSCKVLVDALRHNAAAAVPFFGGGSVLRAAEPAPHASYGGIVSVETDLLQWCLESGSIPILCPIGETAARRSVLLDSLEVTASLAKALRPTKIIFLNNTGGLRDSSHKVLSNVNLPADLDLVCNAEWVSTKERQQMRLIVDVLSRLPHHSSAVITAASTLLTELFSNKGSGTLFKNAERMLRVRSLDKLDQGRLVDLVNASFGKKLRDDYLASLRPRLHSIYVSEGYNAAAILTMEPVLGGTPYLDKFVVSSSRQGQGSGQMLWECLRRDLQTLFWRSRVTNPINPWYFKHSDGSFSNKQWIFFWFGLADIRDSYELVNHAKGLPDSFHKPASDPGS
notes: N-acetylglutamate synthase (NAGS, EC 2.3.1.1), human; the printed tetramer weight of 202.4 kDa gives 50.6 kDa a subunit; also called hNAGS; human NAGS
stoichiometry N [3]: 4

Source: article PMC3722096, “Crystal Structure of the N-Acetyltransferase Domain of Human N-Acetyl-L-Glutamate Synthase in Complex with N-Acetyl-L-Glutamate Provides Insights into Its Catalytic and Regulatory Mechanisms” (PLoS ONE, 2013)
